Sequences and labels used below:
T1: biotinylated CD3 epsilon epitope peptide (UniProt P07766 22-48, biotinylated)
T1 chain: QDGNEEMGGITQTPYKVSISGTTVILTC

B1: NNS6f55 (CE115HA340 with AGRWLA inserted between Kabat positions 99 and 100), one-arm antibody (antibody)
chain 1: QVQLVESGGGLVQPGRSLRLSCAASGFTFSNAWMHWVRQAPGKGLEWVAQIKDKSNNYATYYAESVKGRFTISRDDSKNSIYLQMNSLKTEDTAVYYCRYVHYAAAGRWLAYYGVDAWGQGTTVTVSSASTKGPSVFPLAPSSKSTSGGTAALGCLVKDYFPEPVTVSWNSGALTSGVHTFPAVLQSSGLYSLSSVVTVPSSSLGTQTYICNVNHKPSNTKVDKKVEPKSCDKTHTCPPCPAPEAAGGPSVFLFPPKPKDTLMISRTPEVTCVVVDVSHEDPEVKFNWYVDGVEVHNAKTKPREEQYASTYRVVSVLTVLHQDWLNGKEYKCKVSNKALPAPIEKTISKAKGQPREPQVYTLPPSRCELTKNQVSLSCAVKGFYPSDIAVEWESNGQPENNYKTTPPVLDSDGSFFLVSKLTVDKSRWQQGNVFSCSVMHEALHNHYTQKSLSLSPDYKDDDDK
chain 2: EPKSSDKTHTCPPCPAPELLGGPSVFLFPPKPKDTLMISRTPEVTCVVVDVSHEDPEVKFNWYVDGVEVHNAKTKPREEQYNSTYRVVSVLTVLHQDWLNGKEYKCKVSNKALPAPIEKTISKAKGQPREPQVCTLPPSRDELTKNQVSLWCLVKGFYPSDIAVEWESNGQPENNYKTTPPVLDSDGSFFLYSKLTVDKSRWQQGNVFSCSVMHEALHNRYTQKSLSLSP
chain 3: DIVMTQSPLSLPVTPGEPASISCRSSQSLVHSNRNTYLHWYQQKPGQAPRLLIYKVSNRFSGVPDRFSGSGSGTDFTLKISRVEAEDVGVYYCGQGTQVPYTFGQGTKLEIKRTVAAPSVFIFPPSDEQLKSGTASVVCLLNNFYPREAKVQWKVDNALQSGNSQESVTEQDSKDSTYSLSSTLTLSKADYEKHKVYACEVTHQGLSSPVTKSFNRGEC
B2: NNS6f62 (CE115HA340 with NGGTRH inserted between Kabat positions 99 and 100), one-arm antibody (antibody)
chain 1: QVQLVESGGGLVQPGRSLRLSCAASGFTFSNAWMHWVRQAPGKGLEWVAQIKDKSNNYATYYAESVKGRFTISRDDSKNSIYLQMNSLKTEDTAVYYCRYVHYAANGGTRHYYGVDAWGQGTTVTVSSASTKGPSVFPLAPSSKSTSGGTAALGCLVKDYFPEPVTVSWNSGALTSGVHTFPAVLQSSGLYSLSSVVTVPSSSLGTQTYICNVNHKPSNTKVDKKVEPKSCDKTHTCPPCPAPEAAGGPSVFLFPPKPKDTLMISRTPEVTCVVVDVSHEDPEVKFNWYVDGVEVHNAKTKPREEQYASTYRVVSVLTVLHQDWLNGKEYKCKVSNKALPAPIEKTISKAKGQPREPQVYTLPPSRCELTKNQVSLSCAVKGFYPSDIAVEWESNGQPENNYKTTPPVLDSDGSFFLVSKLTVDKSRWQQGNVFSCSVMHEALHNHYTQKSLSLSPDYKDDDDK
chain 2: EPKSSDKTHTCPPCPAPELLGGPSVFLFPPKPKDTLMISRTPEVTCVVVDVSHEDPEVKFNWYVDGVEVHNAKTKPREEQYNSTYRVVSVLTVLHQDWLNGKEYKCKVSNKALPAPIEKTISKAKGQPREPQVCTLPPSRDELTKNQVSLWCLVKGFYPSDIAVEWESNGQPENNYKTTPPVLDSDGSFFLYSKLTVDKSRWQQGNVFSCSVMHEALHNRYTQKSLSLSP
chain 3: DIVMTQSPLSLPVTPGEPASISCRSSQSLVHSNRNTYLHWYQQKPGQAPRLLIYKVSNRFSGVPDRFSGSGSGTDFTLKISRVEAEDVGVYYCGQGTQVPYTFGQGTKLEIKRTVAAPSVFIFPPSDEQLKSGTASVVCLLNNFYPREAKVQWKVDNALQSGNSQESVTEQDSKDSTYSLSSTLTLSKADYEKHKVYACEVTHQGLSSPVTKSFNRGEC
B3: NNS6f59 (CE115HA340 with LLVQEG inserted between Kabat positions 99 and 100), one-arm antibody (antibody)
chain 1: QVQLVESGGGLVQPGRSLRLSCAASGFTFSNAWMHWVRQAPGKGLEWVAQIKDKSNNYATYYAESVKGRFTISRDDSKNSIYLQMNSLKTEDTAVYYCRYVHYAALLVQEGYYGVDAWGQGTTVTVSSASTKGPSVFPLAPSSKSTSGGTAALGCLVKDYFPEPVTVSWNSGALTSGVHTFPAVLQSSGLYSLSSVVTVPSSSLGTQTYICNVNHKPSNTKVDKKVEPKSCDKTHTCPPCPAPEAAGGPSVFLFPPKPKDTLMISRTPEVTCVVVDVSHEDPEVKFNWYVDGVEVHNAKTKPREEQYASTYRVVSVLTVLHQDWLNGKEYKCKVSNKALPAPIEKTISKAKGQPREPQVYTLPPSRCELTKNQVSLSCAVKGFYPSDIAVEWESNGQPENNYKTTPPVLDSDGSFFLVSKLTVDKSRWQQGNVFSCSVMHEALHNHYTQKSLSLSPDYKDDDDK
chain 2: EPKSSDKTHTCPPCPAPELLGGPSVFLFPPKPKDTLMISRTPEVTCVVVDVSHEDPEVKFNWYVDGVEVHNAKTKPREEQYNSTYRVVSVLTVLHQDWLNGKEYKCKVSNKALPAPIEKTISKAKGQPREPQVCTLPPSRDELTKNQVSLWCLVKGFYPSDIAVEWESNGQPENNYKTTPPVLDSDGSFFLYSKLTVDKSRWQQGNVFSCSVMHEALHNRYTQKSLSLSP
chain 3: DIVMTQSPLSLPVTPGEPASISCRSSQSLVHSNRNTYLHWYQQKPGQAPRLLIYKVSNRFSGVPDRFSGSGSGTDFTLKISRVEAEDVGVYYCGQGTQVPYTFGQGTKLEIKRTVAAPSVFIFPPSDEQLKSGTASVVCLLNNFYPREAKVQWKVDNALQSGNSQESVTEQDSKDSTYSLSSTLTLSKADYEKHKVYACEVTHQGLSSPVTKSFNRGEC
B4: NNS6f63 (CE115HA340 with GGGGWV inserted between Kabat positions 99 and 100), one-arm antibody (antibody)
chain 1: QVQLVESGGGLVQPGRSLRLSCAASGFTFSNAWMHWVRQAPGKGLEWVAQIKDKSNNYATYYAESVKGRFTISRDDSKNSIYLQMNSLKTEDTAVYYCRYVHYAAGGGGWVYYGVDAWGQGTTVTVSSASTKGPSVFPLAPSSKSTSGGTAALGCLVKDYFPEPVTVSWNSGALTSGVHTFPAVLQSSGLYSLSSVVTVPSSSLGTQTYICNVNHKPSNTKVDKKVEPKSCDKTHTCPPCPAPEAAGGPSVFLFPPKPKDTLMISRTPEVTCVVVDVSHEDPEVKFNWYVDGVEVHNAKTKPREEQYASTYRVVSVLTVLHQDWLNGKEYKCKVSNKALPAPIEKTISKAKGQPREPQVYTLPPSRCELTKNQVSLSCAVKGFYPSDIAVEWESNGQPENNYKTTPPVLDSDGSFFLVSKLTVDKSRWQQGNVFSCSVMHEALHNHYTQKSLSLSPDYKDDDDK
chain 2: EPKSSDKTHTCPPCPAPELLGGPSVFLFPPKPKDTLMISRTPEVTCVVVDVSHEDPEVKFNWYVDGVEVHNAKTKPREEQYNSTYRVVSVLTVLHQDWLNGKEYKCKVSNKALPAPIEKTISKAKGQPREPQVCTLPPSRDELTKNQVSLWCLVKGFYPSDIAVEWESNGQPENNYKTTPPVLDSDGSFFLYSKLTVDKSRWQQGNVFSCSVMHEALHNRYTQKSLSLSP
chain 3: DIVMTQSPLSLPVTPGEPASISCRSSQSLVHSNRNTYLHWYQQKPGQAPRLLIYKVSNRFSGVPDRFSGSGSGTDFTLKISRVEAEDVGVYYCGQGTQVPYTFGQGTKLEIKRTVAAPSVFIFPPSDEQLKSGTASVVCLLNNFYPREAKVQWKVDNALQSGNSQESVTEQDSKDSTYSLSSTLTLSKADYEKHKVYACEVTHQGLSSPVTKSFNRGEC
B5: NNS6f56 (CE115HA340 with REATRW inserted between Kabat positions 99 and 100), one-arm antibody (antibody, V domains shown)
VH: QVQLVESGGGLVQPGRSLRLSCAASGFTFSNAWMHWVRQAPGKGLEWVAQIKDKSNNYATYYAESVKGRFTISRDDSKNSIYLQMNSLKTEDTAVYYCRYVHYAAREATRWYYGVDAWGQGTTVTVSS
VL: DIVMTQSPLSLPVTPGEPASISCRSSQSLVHSNRNTYLHWYQQKPGQAPRLLIYKVSNRFSGVPDRFSGSGSGTDFTLKISRVEAEDVGVYYCGQGTQVPYTFGQGTKLEIKR
B6: NNS6f73 (CE115HA340 with WVVGVR inserted between Kabat positions 99 and 100), one-arm antibody (antibody, V domains shown)
VH: QVQLVESGGGLVQPGRSLRLSCAASGFTFSNAWMHWVRQAPGKGLEWVAQIKDKSNNYATYYAESVKGRFTISRDDSKNSIYLQMNSLKTEDTAVYYCRYVHYAAWVVGVRYYGVDAWGQGTTVTVSS
VL: DIVMTQSPLSLPVTPGEPASISCRSSQSLVHSNRNTYLHWYQQKPGQAPRLLIYKVSNRFSGVPDRFSGSGSGTDFTLKISRVEAEDVGVYYCGQGTQVPYTFGQGTKLEIKR
B7: NNS6f58 (CE115HA340 with SWQVSR inserted between Kabat positions 99 and 100), one-arm antibody (antibody, V domains shown)
VH: QVQLVESGGGLVQPGRSLRLSCAASGFTFSNAWMHWVRQAPGKGLEWVAQIKDKSNNYATYYAESVKGRFTISRDDSKNSIYLQMNSLKTEDTAVYYCRYVHYAASWQVSRYYGVDAWGQGTTVTVSS
VL: DIVMTQSPLSLPVTPGEPASISCRSSQSLVHSNRNTYLHWYQQKPGQAPRLLIYKVSNRFSGVPDRFSGSGSGTDFTLKISRVEAEDVGVYYCGQGTQVPYTFGQGTKLEIKR
B8: NNS6f68 (CE115HA340 with VEWGRW inserted between Kabat positions 99 and 100), one-arm antibody (antibody, V domains shown)
VH: QVQLVESGGGLVQPGRSLRLSCAASGFTFSNAWMHWVRQAPGKGLEWVAQIKDKSNNYATYYAESVKGRFTISRDDSKNSIYLQMNSLKTEDTAVYYCRYVHYAAVEWGRWYYGVDAWGQGTTVTVSS
VL: DIVMTQSPLSLPVTPGEPASISCRSSQSLVHSNRNTYLHWYQQKPGQAPRLLIYKVSNRFSGVPDRFSGSGSGTDFTLKISRVEAEDVGVYYCGQGTQVPYTFGQGTKLEIKR
B9: NNS6f71 (CE115HA340 with GWVLGS inserted between Kabat positions 99 and 100), one-arm antibody (antibody, V domains shown)
VH: QVQLVESGGGLVQPGRSLRLSCAASGFTFSNAWMHWVRQAPGKGLEWVAQIKDKSNNYATYYAESVKGRFTISRDDSKNSIYLQMNSLKTEDTAVYYCRYVHYAAGWVLGSYYGVDAWGQGTTVTVSS
VL: DIVMTQSPLSLPVTPGEPASISCRSSQSLVHSNRNTYLHWYQQKPGQAPRLLIYKVSNRFSGVPDRFSGSGSGTDFTLKISRVEAEDVGVYYCGQGTQVPYTFGQGTKLEIKR
B10: NNS6f67 (CE115HA340 with GLLRAA inserted between Kabat positions 99 and 100), one-arm antibody (antibody, V domains shown)
VH: QVQLVESGGGLVQPGRSLRLSCAASGFTFSNAWMHWVRQAPGKGLEWVAQIKDKSNNYATYYAESVKGRFTISRDDSKNSIYLQMNSLKTEDTAVYYCRYVHYAAGLLRAAYYGVDAWGQGTTVTVSS
VL: DIVMTQSPLSLPVTPGEPASISCRSSQSLVHSNRNTYLHWYQQKPGQAPRLLIYKVSNRFSGVPDRFSGSGSGTDFTLKISRVEAEDVGVYYCGQGTQVPYTFGQGTKLEIKR
B11: NNS6f64 (CE115HA340 with LVSLTV inserted between Kabat positions 99 and 100), one-arm antibody (antibody, V domains shown)
VH: QVQLVESGGGLVQPGRSLRLSCAASGFTFSNAWMHWVRQAPGKGLEWVAQIKDKSNNYATYYAESVKGRFTISRDDSKNSIYLQMNSLKTEDTAVYYCRYVHYAALVSLTVYYGVDAWGQGTTVTVSS
VL: DIVMTQSPLSLPVTPGEPASISCRSSQSLVHSNRNTYLHWYQQKPGQAPRLLIYKVSNRFSGVPDRFSGSGSGTDFTLKISRVEAEDVGVYYCGQGTQVPYTFGQGTKLEIKR
B12: NNS6f72 (CE115HA340 with EGIWWG inserted between Kabat positions 99 and 100), one-arm antibody (antibody, V domains shown)
VH: QVQLVESGGGLVQPGRSLRLSCAASGFTFSNAWMHWVRQAPGKGLEWVAQIKDKSNNYATYYAESVKGRFTISRDDSKNSIYLQMNSLKTEDTAVYYCRYVHYAAEGIWWGYYGVDAWGQGTTVTVSS
VL: DIVMTQSPLSLPVTPGEPASISCRSSQSLVHSNRNTYLHWYQQKPGQAPRLLIYKVSNRFSGVPDRFSGSGSGTDFTLKISRVEAEDVGVYYCGQGTQVPYTFGQGTKLEIKR

What is called Kd is a measure of binding affinity in units of concentration. A high value points to weaker binding.

This test addresses T1, biotinylated CD3 epsilon epitope peptide. Put plainly: SPR (Biacore); biotinylated CD3 epsilon epitope peptide on chip via streptavidin, antibody as analyte. For orientation: SPR reads the build-up and loss of mass on a sensor chip optically.
B1 showed a Kd of 31 nM. That is a double-digit nanomolar value.
Molecule B2 registered a Kd of 61 nM.
Regarding B3, the affinity, expressed as Kd, was 200 nM. This Kd lies about 3.3-fold higher than the previous one.
Take B4: binding was characterised by a dissociation constant (Kd) of 69 nM.
B5 returned a dissociation constant Kd of 21 nM.
B6 showed a Kd of 26 nM. The Kd values of the last two molecules are within 1.5-fold of each other.
As for B7, the Kd stood at 44 nM. This Kd is about 1.7-fold higher than that of the molecule before.
The molecule B8 yielded an equilibrium dissociation constant (Kd) of 45 nM.
As for B9, the figure is 51 nM; as for B10, 36 nM; as for B11, 78 nM.
The molecule B12 yielded an equilibrium dissociation constant (Kd) of 150 nM.

(Values after US20240270846A1 (published 2024).)
